Target: T1, fibrinogen (Homo sapiens, UniProt P02671+P02675+P02679)
T1 sequence (P02671 20-629 limits assumed): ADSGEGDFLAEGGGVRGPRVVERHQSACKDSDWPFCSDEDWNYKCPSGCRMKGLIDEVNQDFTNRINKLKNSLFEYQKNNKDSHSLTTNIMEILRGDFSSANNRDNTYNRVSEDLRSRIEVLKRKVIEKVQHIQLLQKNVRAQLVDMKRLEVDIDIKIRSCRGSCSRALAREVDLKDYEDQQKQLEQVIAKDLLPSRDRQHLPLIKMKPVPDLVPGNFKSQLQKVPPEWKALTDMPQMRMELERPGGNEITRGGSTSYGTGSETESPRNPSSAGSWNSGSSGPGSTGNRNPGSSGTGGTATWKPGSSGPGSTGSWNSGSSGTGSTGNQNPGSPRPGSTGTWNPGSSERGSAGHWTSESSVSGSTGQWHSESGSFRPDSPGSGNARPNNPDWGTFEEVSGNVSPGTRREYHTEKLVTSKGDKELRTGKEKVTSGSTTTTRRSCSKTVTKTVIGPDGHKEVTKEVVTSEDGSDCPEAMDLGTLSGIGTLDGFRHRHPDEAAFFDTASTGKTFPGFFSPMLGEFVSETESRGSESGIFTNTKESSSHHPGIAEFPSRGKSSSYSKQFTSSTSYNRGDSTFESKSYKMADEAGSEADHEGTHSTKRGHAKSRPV
T1 sequence (P02675 31-491): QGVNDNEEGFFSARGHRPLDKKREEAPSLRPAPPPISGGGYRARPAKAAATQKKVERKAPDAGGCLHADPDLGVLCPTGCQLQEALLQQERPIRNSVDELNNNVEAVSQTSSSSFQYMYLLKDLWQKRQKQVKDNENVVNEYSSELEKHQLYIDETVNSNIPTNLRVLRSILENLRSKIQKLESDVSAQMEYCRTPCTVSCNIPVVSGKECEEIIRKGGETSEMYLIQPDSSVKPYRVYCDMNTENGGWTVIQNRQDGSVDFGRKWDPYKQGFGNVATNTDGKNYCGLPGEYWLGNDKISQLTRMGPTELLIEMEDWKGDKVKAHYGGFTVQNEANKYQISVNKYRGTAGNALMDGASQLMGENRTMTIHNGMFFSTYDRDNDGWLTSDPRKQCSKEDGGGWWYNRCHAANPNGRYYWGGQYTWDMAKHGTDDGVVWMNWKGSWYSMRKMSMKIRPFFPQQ
T1 sequence (P02679 27-453): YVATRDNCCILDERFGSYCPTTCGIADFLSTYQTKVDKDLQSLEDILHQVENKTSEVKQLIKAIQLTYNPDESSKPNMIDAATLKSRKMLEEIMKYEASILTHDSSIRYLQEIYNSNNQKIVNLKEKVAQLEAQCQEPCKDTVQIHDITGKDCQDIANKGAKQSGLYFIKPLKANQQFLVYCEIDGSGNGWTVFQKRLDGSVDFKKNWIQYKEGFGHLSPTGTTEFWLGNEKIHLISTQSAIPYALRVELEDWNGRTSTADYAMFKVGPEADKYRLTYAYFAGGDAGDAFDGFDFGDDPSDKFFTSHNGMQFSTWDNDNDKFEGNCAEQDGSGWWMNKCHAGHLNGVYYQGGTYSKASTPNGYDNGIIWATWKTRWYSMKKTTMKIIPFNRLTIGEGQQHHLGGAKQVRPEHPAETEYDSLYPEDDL
Test: Fibrinogen ELISA assay
Assay type: binding
Settings: sandwich ELISA
Protocol: Fibrinogen ELISA Assay. To ensure similar immobilization levels of recombinant human ectodomain aIIbβ3 between the ELISA plate and integrin coupled magnetic beads, the wells of a 96-well micro plate (Nunc MaxiSorp) were incubated with the same aIIbβ3 concentration per surface area as during the preparation of the magnetic beads, 6.6×10^4 μg·mL^−1·c^−2. Each well was coated with aIIbβ3 or control proteins (BSA and β3−/− platelet lysate) by incubation of 6 μg/μL protein in binding buffer (TRIS buffered saline with 0.05% TWEEN-20 and 1 mM each of MgCl2, MnCl2 and CaCl2)) at 4° C. overnight. Incubation of 3% skim milk (ED Millipore) and 2% TWEEN-20 for 1 hour at 37° C. was used for blocking. The concentration of aIIbβ3 per surface area of bead used when coating SAM coated beads is 6.6×10^4 μg·mL^−1·cm^−2, therefore the wells of 96 well plates used were coated with the same density EDC/NHS quenching achieved by increase pH to 8.6. Bead concentration for synthesis: 6×10^9 beads·mL^−1; Integrin-bead reaction concentration=250 μg·mL^−1; Integrin Used=6.6×10^4 μg·mL^−1·cm^−2; Well Surface Area (50 μL)=0.93 cm^2; Concentration/wee for ELISA=6×10^4 μg·mL^−1 (6 μL/well in 50 μL total volume); Stock [αIIbβ3]=5×10^5 μg·mL^−1.
Fibrinogen binding. […] The OPD peroxidase reaction was stopped after 1 hour with 2 M H2SO4 and the absorbance was read at 492 nm. […]

Substance: integrin: Recombinant human ectodomain αIIbβ3 immobilized on 96-well ELISA plate at the same density as on the beads
- CLOD (fibrinogen detection): 0.54 ± 0.07 µM
- Kd (integrin on plate surface, blocking step, HRP labelled detection antibody): 2.2 ± 0.4 µM
